The chains are these.
B1: S304 (antibody, V domains shown)
VH: VQLVESGGGLVQPGGSLRLSCAASGFTFSSYDMHWVRQTTGKGLEWVSTIGTAGDTYYPDSVKGRFTISREDAKNSLYLQMNSLRAGDTAVYYCARGDSSGYYYYFDYWGQGTLLTVSS
VL: DIEMTQSPSSLSAAVGDRVTITCRASQSIGSYLNWYQQKPGKAPKLLIYAASSLQSGVPSRFSGSGSGTDFTLTISSLQPEDFAIYYCQQSYVSPTYTFGPGTKVDIK
B2: S2X35 (antibody, V domains shown)
VH: QVQLVQSGAEVKKPGASVKVSCKASGYTFTNYGISWVRQAPGQGLEWMGWISAYKGNTNYAQKLQGRVTMTTDTSTSTAYMELRSLRSDDTAVYYCARPDYQVLGYDFWIGYYGMDVWGQGTTVIVSS
VL: QSVLTQPPSVSGAPGQRVTISCTGSSSNIGAGYDVHWYQQLPGTAPKLLIYGNTNRPSGVPDRFSGSKSGTSASLAITGLQAEDEADYYCQSYDSSLSGSEVVFGGGTKLTVL
B3: S2E12 (antibody, V domains shown)
VH: not shown
VL: DIVLTQTPGTLSLSPGERATLSCRASQSVSSSYLAWYQQKPGQAPRLLIYGASSRATGIPDRFSGSGSGTDFTLTISRLEPEDFAVYYCQQYVGLTGWTFGQGTKVEIK
B4: COVA2-02 (antibody, V domains shown)
VH: VQLQQESGPGLVKPSETLSLTCTVSGGSISSSSYYWGWIRQPPGKGLEWIGSIYYSGSTYYNPSLKSRVTISVDTSKNQFSLKLSSVTAADTAVYYCARRSTSRWGYYYMDVWGKGTRVTVSS
VL: DIVMTQSPSSLSASVGDRVTITCRASQSISNYLNWYQQKPGKAPKLLLYAASDLQSGVPSRFSGSGSGTDFTLTISSLQPEDFATYYCQQSYSTHMSTFGQGTKVDIK
B5: COVA2-16 (antibody, V domains shown)
VH: QVQLVQSGAEVKKPGATVKISCKVSGYTFTDYYMHWVQQAPGKGLEWMGLVDPEDGETIYAEKFQGRVTITADTSTDTAYMELSSLRSEDTAVYYCASSDSSGFVGSRGFDYWGQGTRVTVSS
VL: DIQLTQSPSSLSASVGDRVTITCRASQGIRNDLGWYQQKPGKAPKRLIYAASSLQSGVPSRFSGSGSGTEFTLTISSLQPEDFATYYCLQHNSYPPLFGQGTKVEIK
B6: COVA2-20 (antibody, V domains shown)
VH: EVQLVESGGGLIQPGGSLRLSCAASGFTVSSNYMSWVRQAPGKGLEWVSVIYSGGSTYYADSVKGRFTISRDNSKNTLYLQMNSLRAEDTAVYYCASPLLLTPPDYYYYMDVWGKGTMVTVSS
VL: B5 VL with I2V, Q3V, L4M, A13V, P95L, P96W, L97T, V104L
B7: COVA2-15 (antibody, V domains shown)
VH: QVQLLESGGGLVQPGGSLRLSCAASGFTFSSYAMSWVRQAPGKGLEWASAISGSGGSTYYADSVEGRFTISRDNSKNTLYLQMNSLRAEDTAVYYCAKDTGYCGDDCYIKLIRGGPDYWGQGTLVTVSS
VL: DIVMTQSPLSLPVTLGQPASISCRSSQSLVYSDGNTFLNWFQQRPGQSPRRLIYQVSNRDSGVPDRFSGSGSGTDFTLKISRVEAEDVGVYYCMQGTHWPRTFGQGTKLEIK
B8: P2B-2F6 (antibody, V domains shown)
VH: QVQLQESGPGLVKPSETLSLTCTVSGYSISSGYYWGWIRQPPGKGLEWIGSIYHSGSTYYNPSLKTRVTISVDTSKNQFSLKLSSVTAADTAVYYCARAVVGIVVVPAAGRRAFDIWGQGTMVTVSS
VL: QSALTQPPSASGSPGQSVTISCTGTSSDVGGYNYVSWYQQHPGKAPKLMIYEVSKRPSGVPDRFSGSKSGNTASLTVSGLQAEDEADYYCSSYAGSNNLVFGGGTKLTVL
B9: CV07-270 (antibody, V domains shown)
VH: QVQLVESGGGLVKPGGSLRLSCAASGFTFSDYYMTWIRQAPGKGLEWVSYISSSGSTIYYADSVKGRFTISRDNAKNSLYLQMNSLRAEDTAVYYCARARGSSGWYRIGTRWGNWFDPWGQGTLVTVSS
VL: QSALTQPASVSGSPGQSITISCTGTSSDVGGYNYVSWYQQHPGKAPKLMIYEVSNRPSGVSNRFSGSKSGNTASLTISGLQAEDEADYYCSSYTSSSNVVFGGGTMLTVL
B10: S2M11 (antibody, V domains shown)
VH: EVQLVQSGAEVKKPGASVKVSCKASGYTFTGYYMHWVRQAPGQGLEWMGWINPISSGTSYAQTFQGRVTMTSDTSITTAYMELSRLRSDDTAVYYCARAAPFYDFWSGYSYFDYWGQGTLVTVSS
VL: not shown
B11: COVA2-17 (antibody, V domains shown)
VH: QVQLVESGAEVKKPGSSVKVSCKASGGTFSSYGINWVRQAPGQGLEWMGGIIPIFGTANYAQKFQGRVTITTDESTSTAYMELSSLRSEDTAVYYCASFGDDSGDEGVRWGQGTLVTVSS
VL: EIVMTQSPATLSLSPGERATLSCRASQSVSSYLAWYQQKPGQAPRLLIYDASNRATGIPARFSGSGSGTDFTLTISSLEPEDFAVYYCQQRSNWPPYTFGQGTKVEIK
B12: COVA1-16 (antibody, V domains shown)
VH: QVQLVQSGAEVKKPGASVKVSCKASGYTFTSYYMHWVRQAPGQGLEWMGIINSSGGSTSYAQKFQGRVTMTRDTSTSTVYMELSSLRSEDTAVYYCARPPRNYYDRSGYYQRAEYFQHWGQGTLVTVSS
VL: DIQLTQSPSSLSASVGDRVTITCQASQDISNYLNWYQQRPGKAPKLLIYDASNLETGVPSRFSGSGSGTDFTFTISSLQPEDIATYYCQQYDNPPLTFGGGTKLEIK
B13: COVA2-24 (antibody, V domains shown)
VH: EVQLVQSGAEVKKPGESLRISCKGSGYSFTSYWISWVRQMPGKGLEWMGRIDPSDSYTNYSPSFQGHVTISADKSISTAYLQWSSLKASDTAMYYCARPNPAGGYDSSGWVDAFDIWGQGTRVTVSS
VL: not shown
B14: COVA2-11 (antibody, V domains shown)
VH: EVQLVESGAEVKKPGSSVKVSCKASGGTLSSYAISWVRQAPGQGLEWMGGIIPIFGTANYAQKFQGRVTITTDESTSTAYMELSSLRSEDTAVYYCARGPRGCSSTSCYGSYFDYWGQGTLVTVSS
VL: not shown
B15: COVA2-05 (antibody, V domains shown)
VH: EVQLLESGAEVKKPGESLKISCKGSGYSFTSYWIGWVRQMPGKGLEWMGIIYPGDSDTRYSPSFQGQVTISADKSISTAYLQWSSLKASDTAMYYCARHMRPSIAARPGYQYYMDVWGKGTRVTVSS
VL: not shown
B16: COVA2-07 (antibody, V domains shown)
VH: EVQLVETGGGLIQPGGSLRLSCAASGLTVSSNYMNWVRQAPGKGLEWVSVIYSGGSTYYADSVKGRFTISRDNSKNTLYLQMNSLRAEDTAVYYCAREAYGMDVWGQGTMVTVSS
VL: not shown
B17: S2P6 (sdFab) (Fab, V domains shown)
VH: EVQLVQSGAEVKKPGASVKVSCKASGYTFTSQYMHWVRQAPGQGLEWIGIINPSGVHTSYAQKFQGRVTLTRDTSTSTLYMELSSLRSEDTAVYYCARGSPKGAFDYWGQGTLVTVSS
VL: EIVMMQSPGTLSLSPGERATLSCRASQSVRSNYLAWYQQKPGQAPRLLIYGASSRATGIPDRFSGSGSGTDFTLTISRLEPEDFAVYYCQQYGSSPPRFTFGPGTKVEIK
B18: LY-CoV1404 (sdFab) (Fab, V domains shown)
VH: QITLKESGPTLVKPTQTLTLTCTFSGFSLSISGVGVGWLRQPPGKALEWLALIYWDDDKRYSPSLKSRLTISKDTSKNQVVLKMTNIDPVDTATYYCAHHSISTIFDHWGQGTLVTVSS
VL: QSALTQPASVSGSPGQSITISCTATSSDVGDYNYVSWYQQHPGKAPKLMIFEVSDRPSGISNRFSGSKSGNTASLTISGLQAEDEADYYCSSYTTSSAVFGGGTKLTVL
B19: AZD8895 (sdFab) (Fab, V domains shown)
VH: EVQLVQSGPEVKKPGTSVKVSCKASGFTFMSSAVQWVRQARGQRLEWIGWIVIGSGNTNYAQKFQERVTITRDMSTSTAYMELSSLRSEDTAVYYCAAPYCSSISCNDGFDIWGQGTMVTVSS
VL: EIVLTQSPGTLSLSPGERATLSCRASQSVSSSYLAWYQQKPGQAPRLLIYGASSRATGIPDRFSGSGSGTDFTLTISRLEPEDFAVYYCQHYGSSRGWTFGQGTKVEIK
B20: CB6 (sdFab) (Fab, V domains shown)
VH: EVQLVESGGGLVQPGGSLRLSCAASGFTVSSNYMSWVRQAPGKGLEWVSVIYSGGSTFYADSVKGRFTISRDNSMNTLFLQMNSLRAEDTAVYYCARVLPMYGDYLDYWGQGTLVTVSS
VL: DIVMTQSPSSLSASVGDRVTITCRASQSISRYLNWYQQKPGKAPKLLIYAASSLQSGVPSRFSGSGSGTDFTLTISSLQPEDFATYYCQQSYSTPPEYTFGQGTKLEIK
B21: REGN10987 (sdFab) (Fab, V domains shown)
VH: QVQLVESGGGVVQPGRSLRLSCAASGFTFSNYAMYWVRQAPGKGLEWVAVISYDGSNKYYADSVKGRFTISRDNSKNTLYLQMNSLRTEDTAVYYCASGSDYGDYLLVYWGQGTLVTVSS
VL: B9 VL with E52D, N55K, A82S, S91N, Y93L, S96I, N98T, V99W, M106K
B22: LY-CoV555 (sdFab) (Fab, V domains shown)
VH: QVQLVQSGAEVKKPGSSVKVSCKASGGTFSNYAISWVRQAPGQGLEWMGRIIPILGIANYAQKFQGRVTITADKSTSTAYMELSSLRSEDTAVYYCARGYYEARHYYYYYAMDVWGQGTAVTVSS
VL: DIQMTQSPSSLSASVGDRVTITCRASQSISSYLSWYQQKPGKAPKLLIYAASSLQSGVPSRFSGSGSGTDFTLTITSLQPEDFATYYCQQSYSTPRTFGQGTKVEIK
B23: REGN10933 (sdFab) (Fab, V domains shown)
VH: QVQLVESGGGLVKPGGSLRLSCAASGFTFSDYYMSWIRQAPGKGLEWVSYITYSGSTIYYADSVKGRFTISRDNAKSSLYLQMNSLRAEDTAVYYCARDRGTTMVPFDYWGQGTLVTVSS
VL: B12 VL with L4M, S30T, R39K, D50A, S77G, P94L, L104V

Residue numbers refer to the chain shown, from its start. In names and notes the source's numbering stands.

HCoV-OC43 S, sequence (P36334 14-1353): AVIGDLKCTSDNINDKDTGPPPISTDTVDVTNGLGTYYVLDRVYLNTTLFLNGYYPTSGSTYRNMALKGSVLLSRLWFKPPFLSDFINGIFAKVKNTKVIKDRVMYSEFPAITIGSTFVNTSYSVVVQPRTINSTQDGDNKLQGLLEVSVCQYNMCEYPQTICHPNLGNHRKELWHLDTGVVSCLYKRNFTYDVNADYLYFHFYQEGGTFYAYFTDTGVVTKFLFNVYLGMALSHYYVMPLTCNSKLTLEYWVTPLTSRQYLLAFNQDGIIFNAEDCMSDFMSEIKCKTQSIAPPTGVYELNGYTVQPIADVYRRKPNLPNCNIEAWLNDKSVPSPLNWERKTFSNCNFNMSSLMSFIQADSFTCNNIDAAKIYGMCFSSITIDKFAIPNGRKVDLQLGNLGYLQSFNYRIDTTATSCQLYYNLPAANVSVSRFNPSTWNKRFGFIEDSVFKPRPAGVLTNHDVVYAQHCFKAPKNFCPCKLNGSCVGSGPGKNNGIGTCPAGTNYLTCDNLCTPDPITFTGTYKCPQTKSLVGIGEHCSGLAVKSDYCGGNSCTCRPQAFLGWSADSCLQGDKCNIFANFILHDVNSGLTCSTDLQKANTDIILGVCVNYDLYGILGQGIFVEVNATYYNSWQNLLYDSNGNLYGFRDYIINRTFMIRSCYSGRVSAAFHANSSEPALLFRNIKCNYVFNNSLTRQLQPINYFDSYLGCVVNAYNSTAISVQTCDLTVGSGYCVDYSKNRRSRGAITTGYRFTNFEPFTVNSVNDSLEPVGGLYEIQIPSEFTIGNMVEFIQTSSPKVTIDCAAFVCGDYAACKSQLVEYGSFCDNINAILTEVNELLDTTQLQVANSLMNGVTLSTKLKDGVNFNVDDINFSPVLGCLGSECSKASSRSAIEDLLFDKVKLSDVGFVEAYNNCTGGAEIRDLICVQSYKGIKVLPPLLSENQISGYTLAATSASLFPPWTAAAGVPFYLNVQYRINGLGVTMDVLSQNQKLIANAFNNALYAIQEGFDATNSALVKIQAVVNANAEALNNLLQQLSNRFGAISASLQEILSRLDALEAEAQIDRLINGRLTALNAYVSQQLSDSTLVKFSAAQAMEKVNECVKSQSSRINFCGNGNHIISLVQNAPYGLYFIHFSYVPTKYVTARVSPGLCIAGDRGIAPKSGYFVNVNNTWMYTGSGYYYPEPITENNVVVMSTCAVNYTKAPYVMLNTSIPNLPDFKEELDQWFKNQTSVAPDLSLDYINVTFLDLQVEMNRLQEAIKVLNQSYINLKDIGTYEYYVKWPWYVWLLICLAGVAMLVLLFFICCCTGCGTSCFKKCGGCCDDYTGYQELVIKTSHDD

The target in one test is SARS-CoV-2 hexaproline stabilized pre-fusion spike glycoprotein (S6P) (SARS-CoV-2, ancestral (Wuhan-Hu-1 …, UniProt P0DTC2, stabilised)).
Assay: not given
Conditions: not given
As for B1, the binding result was “binds”.
For B2, the binding result was “binds”.
With B3, the binding result is on record as “binds”.
As for B4, the binding result is recorded as “binds”.
For the molecule B5, the binding result is given as “binds”.
Regarding B6, the binding result is recorded as “binds”.
Same read-out and setting: then B7, with “binds”.
Still for that read-out and setting: then B8, with “binds”; and B9, with “binds”.
B10: the binding result is recorded as “binds”.
The same measure, in the same setting: as for B11, the entry is “binds”; as for B12, “binds”.

In a further test the target is T1, SARS-CoV-2 Receptor Binding Domain (RBD) (SARS-CoV-2, UniProt P0DTC2).
Assay: not given
Conditions: not given
Regarding B13, the binding result was “binds”.
Same read-out and setting: as for B4, the entry is “binds”.
The same measure, in the same setting: then B5, with “binds”; and B6, with “binds”; and B7, with “binds”.
On the same count and under the same terms, as for B14, the entry is “binds”; as for B15, “binds”; as for B16, “binds”.
B11: the binding result was “binds”.
On the same count and under the same terms, then B12, with “binds”.

The next test addresses HCoV-OC43 S (HCoV-OC43, strain ; reference …, UniProt P36334). Nature of the test: AlphaScreen or HTRF. To be noted: one partner purified.
For B17, the binding result is “binds”.

In a further test the target is T1, SARS-CoV-2 Receptor Binding Domain (RBD). Briefly: AlphaScreen or HTRF. To be noted: one partner purified. A general note: Alpha assays give light when donor and acceptor beads are brought close together.
As to B18, the binding result is on record as “binds”.
On to B19, for which the binding result is “binds”.
For B20, the binding result was “binds”.
On the same count and under the same terms, as for B21, the entry is “binds”.
On to B22, for which the binding result is on record as “binds”.
Still for that read-out and setting: as for B23, the entry is “binds”.

The values above are taken from paper PMC10318062 (Nature Communications, 2023).
